The test system of data set [1] is HeLa Kyoto. As to the kind of experiment: solubility change mitosis vs G1/S (difference of NP-40 vs SDS log2 ratios) (log2 ratio difference); higher = more soluble in mitosis.
The test system of data set [2] is HeLa Kyoto. As to the kind of experiment: thermal stability score vs G1/S (z-score of summed log2 fold changes over temperatures); higher = more thermally stable than in G1/S.
Data set [3] relates to HeLa Kyoto. As to the kind of experiment: melting temperature (median over replicates), in situ; higher = more thermally stable.
The test system of data set [4] is HeLa Kyoto. The data set is described as follows: solubility in G1/S (NP-40 vs SDS abundance) (log2 ratio); higher = more soluble. Conditions: cell cycle stage: G1/S.
Where [5] appears, read: cell cycle stage: early G1 (4.5 h after nocodazole release).
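Throughout, for melting temperature (median over replicates), in situ: HeLa Kyoto cells synchronized by double thymidine or nocodazole block, proteins quantified by TMT10plex mass spectrometry, three independent biological replicates.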
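Throughout, for solubility change mitosis vs G1/S (difference of NP-40 vs SDS log2 ratios): synchronized HeLa Kyoto cells (double thymidine block for G1/S, nocodazole release for mitosis), protein amounts in NP-40 versus SDS lysates quantified by mass spectrometry, three biological replicates.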
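Throughout, for solubility in G1/S (NP-40 vs SDS abundance): HeLa Kyoto cells arrested at G1/S by double thymidine block, proteins quantified by TMT10plex mass spectrometry in mild NP-40 versus SDS extracts, three biological replicates.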
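Throughout, for thermal stability score vs G1/S (z-score of summed log2 fold changes over temperatures): synchronized HeLa Kyoto cells, proteins quantified by TMT10plex mass spectrometry, three biological replicates, mitosis taken 0.5 h after nocodazole release, G1/S directly after double thymidine block.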

For “MSRLKRIAGQDLRAGFKAGGRDCGTSVPQGLLKAARKSGQLNLSGRNLSEVPQCVWRINVDIPEEANQNLSFGATERWWEQTDLTKLIISNNKLQSLTDDLRLLPALTVLDIHDNQLTSLPSAIRELENLQKLNVSHNKLKILPEEITNLRNLKCLYLQHNELTCISEGFEQLSNLEDLDLSNNHLTTVPASFSSLSSLVRLNLSSNELKSLPAEINRMKRLKHLDCNSNLLETIPPELAGMESLELLYLRRNKLRFLPEFPSCSLLKELHVGENQIEMLEAEHLKHLNSILVLDLRDNKLKSVPDEIILLRSLERLDLSNNDISSLPYSLGNLHLKFLALEGNPLRTIRREIISKGTQEVLKYLRSKIKDDGPSQSESATETAMTLPSESRVNIHAIITLKILDYSDKQATLIPDEVFDAVKSNIVTSINFSKNQLCEIPKRMVELKEMVSDVDLSFNKLSFISLELCVLQKLTFLDLRNNFLNSLPEEMESLVRLQTINLSFNRFKMLPEVLYRIFTLETILISNNQVGSVDPQKMKMMENLTTLDLQNNDLLQIPPELGNCVNLRTLLLDGNPFRVPRAAILMKGTAAILEYLRDRIPT [LRRC40]”, in the data set with HeLa Kyoto [1], the “solubility change mitosis (log2)” value is -0.167. Further, the thermal stability score with HeLa Kyoto [2] (setting [5]) came to 0.285; in the data set on HeLa Kyoto [2] (cell cycle stage: mitosis) it was 1.77. The melting temperature with HeLa Kyoto [3] (cell cycle stage: G1/S) and in the data set with HeLa Kyoto [3] (cell cycle stage: mitosis) was 49.2 °C in each case. Moreover, the “solubility in G1/S (log2)” value in the data set on HeLa Kyoto [4] amounted to 0.322.
Consider “MSRLLWRKVAGATVGPGPVPAPGRWVSSSVPASDPSDGQRRRQQQQQQQQQQQQQPQQPQVLSSEGGQLRHNPLDIQMLSRGLHEQIFGQGGEMPGEAAVRRSVEHLQKHGLWGQPAVPLPDVELRLPPLYGDNLDQHFRLLAQKQSLPYLEAANLLLQAQLPPKPPAWAWAEGWTRYGPEGEAVPVAIPEERALVFDVEVCLAEGTCPTLAVAISPSAWYSWCSQRLVEERYSWTSQLSPADLIPLEVPTGASSPTQRDWQEQLVVGHNVSFDRAHIREQYLIQGSRMRFLDTMSMHMAISGLSSFQRSLWIAAKQGKHKVQPPTKQGQKSQRKARRGPAISSWDWLDISSVNSLAEVHRLYVGGPPLEKEPRELFVKGTMKDIRENFQDLMQYCAQDVWATHEVFQQQLPLFLERCPHPVTLAGMLEMGVSYLPVNQNWERYLAEAQGTYEELQREMKKSLMDLANDACQLLSGERYKEDPWLWDLEWDLQEFKQKKAKKVKKEPATASKLPIEGAGAPGDPMDQEDLGPCSEEEEFQQDVMARACLQKLKGTTELLPKRPQHLPGHPGWYRKLCPRLDDPAWTPGPSLLSLQMRVTPKLMALTWDGFPLHYSERHGWGYLVPGRRDNLAKLPTGTTLESAGVVCPYRAIESLYRKHCLEQGKQQLMPQEAGLAEEFLLTDNSAIWQTVEELDYLEVEAEAKMENLRAAVPGQPLALTARGGPKDTQPSYHHGNGPYNDVDIPGCWFFKLPHKDGNSCNVGSPFAKDFLPKMEDGTLQAGPGGASGPRALEINKMISFWRNAHKRISSQMVVWLPRSALPRAVIRHPDYDEEGLYGAILPQVVTAGTITRRAVEPTWLTASNARPDRVGSELKAMVQAPPGYTLVGADVDSQELWIAAVLGDAHFAGMHGCTAFGWMTLQGRKSRGTDLHSKTATTVGISREHAKIFNYGRIYGAGQPFAERLLMQFNHRLTQQEAAEKAQQMYAATKGLRWYRLSDEGEWLVRELNLPVDRTEGGWISLQDLRKVQRETARKSQWKKWEVVAERAWKGGTESEMFNKLESIATSDIPRTPVLGCCISRALEPSAVQEEFMTSRVNWVVQSSAVDYLHLMLVAMKWLFEEFAIDGRFCISIHDEVRYLVREEDRYRAALALQITNLLTRCMFAYKLGLNDLPQSVAFFSAVDIDRCLRKEVTMDCKTPSNPTGMERRYGIPQGEALDIYQIIELTKGSLEKRSQPGP [POLG]”, for which the “solubility change mitosis (log2)” value in the data set on HeLa Kyoto [1] is -0.0443. Moreover, the figures for the thermal stability score in the data set on HeLa Kyoto [2] (setting [5]) and with HeLa Kyoto [2] (cell cycle stage: mitosis) were 0.521 and 0.308, respectively. For the same sequence, the melting temperature in the data set on HeLa Kyoto [3] (cell cycle stage: G1/S) came to 50.3 °C; in the data set with HeLa Kyoto [3] (cell cycle stage: mitosis) it was 50.6 °C. Besides, the “solubility in G1/S (log2)” value in the data set on HeLa Kyoto [4] stood at 0.0107.
“MSRPPPTGKMPGAPETAPGDGAGASRQRKLEALIRDPRSPINVESLLDGLNSLVLDLDFPALRKNKNIDNFLNRYEKIVKKIRGLQMKAEDYDVVKVIGRGAFGEVQLVRHKASQKVYAMKLLSKFEMIKRSDSAFFWEERDIMAFANSPWVVQLFYAFQDDRYLYMVMEYMPGGDLVNLMSNYDVPEKWAKFYTAEVVLALDAIHSMGLIHRDVKPDNMLLDKHGHLKLADFGTCMKMDETGMVHCDTAVGTPDYISPEVLKSQGGDGFYGRECDWWSVGVFLYEMLVGDTPFYADSLVGTYSKIMDHKNSLCFPEDAEISKHAKNLICAFLTDREVRLGRNGVEEIRQHPFFKNDQWHWDNIRETAAPVVPELSSDIDSSNFDDIEDDKGDVETFPIPKAFVGNQLPFIGFTYYRENLLLSDSPSCRETDSIQSRKNEESQEIQKKLYTLEEHLSNEMQAKEELEQKCKSVNTRLEKTAKELEEEITLRKSVESALRQLEREKALLQHKNAEYQRKADHEADKKRNLENDVNSLKDQLEDLKKRNQNSQISTEKVNQLQRQLDETNALLRTESDTAARLRKTQAESSKQIQQLESNNRDLQDKNCLLETAKLKLEKEFINLQSALESERRDRTHGSEIINDLQGRICGLEEDLKNGKILLAKVELEKRQLQERFTDLEKEKSNMEIDMTYQLKVIQQSLEQEEAEHKATKARLADKNKIYESIEEAKSEAMKEMEKKLLEERTLKQKVENLLLEAEKRCSLLDCDLKQSQQKINELLKQKDVLNEDVRNLTLKIEQETQKRCLTQNDLKMQTQQVNTLKMSEKQLKQENNHLMEMKMNLEKQNAELRKERQDADGQMKELQDQLEAEQYFSTLYKTQVRELKEECEEKTKLGKELQQKKQELQDERDSLAAQLEITLTKADSEQLARSIAEEQYSDLEKEKIMKELEIKEMMARHKQELTEKDATIASLEETNRTLTSDVANLANEKEELNNKLKDVQEQLSRLKDEEISAAAIKAQFEKQLLTERTLKTQAVNKLAEIMNRKEPVKRGNDTDVRRKEKENRKLHMELKSEREKLTQQMIKYQKELNEMQAQIAEESQIRIELQMTLDSKDSDIEQLRSQLQALHIGLDSSSIGSGPGDAEADDGFPESRLEGWLSLPVRNNTKKFGWVKKYVIVSSKKILFYDSEQDKEQSNPYMVLDIDKLFHVRPVTQTDVYRADAKEIPRIFQILYANEGESKKEQEFPVEPVGEKSNYICHKGHEFIPTLYHFPTNCEACMKPLWHMFKPPPALECRRCHIKCHKDHMDKKEEIIAPCKVYYDISTAKNLLLLANSTEEQQKWVSRLVKKIPKKPPAPDPFARSSPRTSMKIQQNQSIRRPSRQLAPNKPS [ROCK2]”: the “solubility change mitosis (log2)” value in the data set on HeLa Kyoto [1] was -0.132. Also, the thermal stability score with HeLa Kyoto [2] (setting [5]) is 0.406; in the data set on HeLa Kyoto [2] (cell cycle stage: mitosis), 1.46. In addition, the melting temperature in the data set on HeLa Kyoto [3] (cell cycle stage: G1/S) was 49.8 °C; with HeLa Kyoto [3] (cell cycle stage: mitosis) it was 49.4 °C. The “solubility in G1/S (log2)” value in the data set on HeLa Kyoto [4] was 0.0267.
As for “MSRRSQRLTRYSQGDDDGSSSSGGSSVAGSQSTLFKDSPLRTLKRKSSNMKRLSPAPQLGPSSDAHTSYYSESLVHESWFPPRSSLEELHGDANWGEDLRVRRRRGTGGSESSRASGLVGRKATEDFLGSSSGYSSEDDYVGYSDVDQQSSSSRLRSAVSRAGSLLWMVATSPGRLFRLLYWWAGTTWYRLTTAASLLDVFVLTRRFSSLKTFLWFLLPLLLLTCLTYGAWYFYPYGLQTFHPALVSWWAAKDSRRPDEGWEARDSSPHFQAEQRVMSRVHSLERRLEALAAEFSSNWQKEAMRLERLELRQGAPGQGGGGGLSHEDTLALLEGLVSRREAALKEDFRRETAARIQEELSALRAEHQQDSEDLFKKIVRASQESEARIQQLKSEWQSMTQESFQESSVKELRRLEDQLAGLQQELAALALKQSSVAEEVGLLPQQIQAVRDDVESQFPAWISQFLARGGGGRVGLLQREEMQAQLRELESKILTHVAEMQGKSAREAAASLSLTLQKEGVIGVTEEQVHHIVKQALQRYSEDRIGLADYALESGGASVISTRCSETYETKTALLSLFGIPLWYHSQSPRVILQPDVHPGNCWAFQGPQGFAVVRLSARIRPTAVTLEHVPKALSPNSTISSAPKDFAIFGFDEDLQQEGTLLGKFTYDQDGEPIQTFHFQAPTMATYQVVELRILTNWGHPEYTCIYRFRVHGEPAH [SUN2]”, in the data set on HeLa Kyoto [1], the “solubility change mitosis (log2)” value amounted to 0.229. Also, the values for the thermal stability score with HeLa Kyoto [2] (setting [5]) and in the data set on HeLa Kyoto [2] (cell cycle stage: mitosis) were -1.84 and -1.17, respectively. Moreover, the results for the melting temperature in the data set on HeLa Kyoto [3] (cell cycle stage: G1/S) and in the data set on HeLa Kyoto [3] (cell cycle stage: mitosis) were 52.4 °C and 55.1 °C, respectively. Also, the “solubility in G1/S (log2)” value in the data set with HeLa Kyoto [4] is -0.141.
Consider “MSRSAAASGGPRRPERHLPPAPCGAPGPPETCRTEPDGAGTMNKLRQSLRRRKPAYVPEASRPHQWQADEDAVRKGTCSFPVRYLGHVEVEESRGMHVCEDAVKKLKAMGRKSVKSVLWVSADGLRVVDDKTKDLLVDQTIEKVSFCAPDRNLDKAFSYICRDGTTRRWICHCFLALKDSGERLSHAVGCAFAACLERKQRREKECGVTAAFDASRTSFAREGSFRLSGGGRPAEREAPDKKKAEAAAAPTVAPGPAQPGHVSPTPATTSPGEKGEAGTPVAAGTTAAAIPRRHAPLEQLVRQGSFRGFPALSQKNSPFKRQLSLRLNELPSTLQRRTDFQVKGTVPEMEPPGAGDSDSINALCTQISSSFASAGAPAPGPPPATTGTSAWGEPSVPPAAAFQPGHKRTPSEAERWLEEVSQVAKAQQQQQQQQQQQQQQQQQQQQAASVAPVPTMPPALQPFPAPVGPFDAAPAQVAVFLPPPHMQPPFVPAYPGLGYPPMPRVPVVGITPSQMVANAFCSAAQLQPQPATLLGKAGAFPPPAIPSAPGSQARPRPNGAPWPPEPAPAPAPELDPFEAQWAALEGKATVEKPSNPFSGDLQKTFEIEL [NUMBL]”, for which the “solubility change mitosis (log2)” value in the data set with HeLa Kyoto [1] was -0.00185. Besides, the thermal stability score in the data set on HeLa Kyoto [2] (setting [5]) was found to be 2.8; in the data set on HeLa Kyoto [2] (cell cycle stage: mitosis), 2.05. For the same sequence, the melting temperature with HeLa Kyoto [3] (cell cycle stage: G1/S) worked out at 51.9 °C; in the data set with HeLa Kyoto [3] (cell cycle stage: mitosis) it was 52.3 °C. In addition, the “solubility in G1/S (log2)” value with HeLa Kyoto [4] stood at 0.205.
For the sequence “MSRSPDAKEDPVECPLCMEPLEIDDINFFPCTCGYQICRFCWHRIRTDENGLCPACRKPYPEDPAVYKPLSQEELQRIKNEKKQKQNERKQKISENRKHLASVRVVQKNLVFVVGLSQRLADPEVLKRPEYFGKFGKIHKVVINNSTSYAGSQGPSASAYVTYIRSEDALRAIQCVNNVVVDGRTLKASLGTTKYCSYFLKNMQCPKPDCMYLHELGDEAASFTKEEMQAGKHQEYEQKLLQELYKLNPNFLQLSTGSVDKNKNKVTPLQRYDTPIDKPSDSLSIGNGDNSQQISNSDTPSPPPGLSKSNPVIPISSSNHSARSPFEGAVTESQSLFSDNFRHPNPIPSGLPPFPSSPQTSSDWPTAPEPQSLFTSETIPVSSSTDWQAAFGFGSSKQPEDDLGFDPFDVTRKALADLIEKELSVQDQPSLSPTSLQNSSSHTTTAKGPGSGFLHPAAATNANSLNSTFSVLPQRFPQFQQHRAVYNSFSFPGQAARYPWMAFPRNSIMHLNHTANPTSNSNFLDLNLPPQHNTGLGGIPVAGEEEVKVSTMPLSTSSHSLQQGQQPTSLHTTVA [CNOT4]”, in the data set on HeLa Kyoto [1], the “solubility change mitosis (log2)” value was 0.0198. Also, the thermal stability score in the data set on HeLa Kyoto [2] (setting [5]) amounted to 1.12; in the data set on HeLa Kyoto [2] (cell cycle stage: mitosis), 0.182. Further, the results for the melting temperature in the data set on HeLa Kyoto [3] (cell cycle stage: G1/S) and in the data set on HeLa Kyoto [3] (cell cycle stage: mitosis) were 52.7 °C and 53 °C, respectively. In the data set on HeLa Kyoto [4], the “solubility in G1/S (log2)” value is 0.401.

The values are drawn from the supplement of paper PMC5998384.
